Experimental data from PMC12589613, “ATP-dependent one-dimensional movement maintains immune homeostasis by suppressing spontaneous MDA5 filament assembly” (Cell Research, 2025).

T1: MDA5(M854K) (human, UniProt Q9BYX4 1-1025, M854K, Cy3 on a peptide (Cy3-CLPETGG) ligated by sortase; used unlabelled in some experiments)
T1 sequence (looked up): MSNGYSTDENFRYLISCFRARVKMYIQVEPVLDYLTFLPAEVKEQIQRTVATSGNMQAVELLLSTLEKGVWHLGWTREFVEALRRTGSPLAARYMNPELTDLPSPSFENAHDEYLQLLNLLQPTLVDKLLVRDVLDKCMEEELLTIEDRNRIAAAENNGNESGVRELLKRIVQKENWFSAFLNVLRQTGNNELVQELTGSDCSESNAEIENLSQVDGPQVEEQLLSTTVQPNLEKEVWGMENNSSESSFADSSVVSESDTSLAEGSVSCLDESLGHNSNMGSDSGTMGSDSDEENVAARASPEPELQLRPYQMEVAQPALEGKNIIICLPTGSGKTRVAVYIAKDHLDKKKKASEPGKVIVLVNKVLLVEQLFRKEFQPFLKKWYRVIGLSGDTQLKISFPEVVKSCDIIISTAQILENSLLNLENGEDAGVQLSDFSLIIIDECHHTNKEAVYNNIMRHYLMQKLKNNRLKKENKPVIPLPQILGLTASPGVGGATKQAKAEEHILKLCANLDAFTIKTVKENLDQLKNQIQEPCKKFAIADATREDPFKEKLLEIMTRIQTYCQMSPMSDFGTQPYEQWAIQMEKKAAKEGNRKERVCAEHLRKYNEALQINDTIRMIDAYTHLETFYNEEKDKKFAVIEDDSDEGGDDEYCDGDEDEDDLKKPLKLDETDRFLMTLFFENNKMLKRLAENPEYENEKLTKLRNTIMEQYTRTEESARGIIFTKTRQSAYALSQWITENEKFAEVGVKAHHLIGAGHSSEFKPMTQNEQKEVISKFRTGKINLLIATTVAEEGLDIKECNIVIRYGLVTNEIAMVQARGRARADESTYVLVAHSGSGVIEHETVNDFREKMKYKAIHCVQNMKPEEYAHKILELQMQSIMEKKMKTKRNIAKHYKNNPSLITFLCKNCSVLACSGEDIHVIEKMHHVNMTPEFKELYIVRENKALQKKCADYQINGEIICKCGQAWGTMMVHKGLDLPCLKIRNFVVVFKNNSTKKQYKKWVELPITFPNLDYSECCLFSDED

T2: MDA5(R337G) (human, UniProt Q9BYX4 1-1025, R337G, Cy3 on a peptide (Cy3-CLPETGG) ligated by sortase; used unlabelled in some experiments)
T2 sequence (looked up): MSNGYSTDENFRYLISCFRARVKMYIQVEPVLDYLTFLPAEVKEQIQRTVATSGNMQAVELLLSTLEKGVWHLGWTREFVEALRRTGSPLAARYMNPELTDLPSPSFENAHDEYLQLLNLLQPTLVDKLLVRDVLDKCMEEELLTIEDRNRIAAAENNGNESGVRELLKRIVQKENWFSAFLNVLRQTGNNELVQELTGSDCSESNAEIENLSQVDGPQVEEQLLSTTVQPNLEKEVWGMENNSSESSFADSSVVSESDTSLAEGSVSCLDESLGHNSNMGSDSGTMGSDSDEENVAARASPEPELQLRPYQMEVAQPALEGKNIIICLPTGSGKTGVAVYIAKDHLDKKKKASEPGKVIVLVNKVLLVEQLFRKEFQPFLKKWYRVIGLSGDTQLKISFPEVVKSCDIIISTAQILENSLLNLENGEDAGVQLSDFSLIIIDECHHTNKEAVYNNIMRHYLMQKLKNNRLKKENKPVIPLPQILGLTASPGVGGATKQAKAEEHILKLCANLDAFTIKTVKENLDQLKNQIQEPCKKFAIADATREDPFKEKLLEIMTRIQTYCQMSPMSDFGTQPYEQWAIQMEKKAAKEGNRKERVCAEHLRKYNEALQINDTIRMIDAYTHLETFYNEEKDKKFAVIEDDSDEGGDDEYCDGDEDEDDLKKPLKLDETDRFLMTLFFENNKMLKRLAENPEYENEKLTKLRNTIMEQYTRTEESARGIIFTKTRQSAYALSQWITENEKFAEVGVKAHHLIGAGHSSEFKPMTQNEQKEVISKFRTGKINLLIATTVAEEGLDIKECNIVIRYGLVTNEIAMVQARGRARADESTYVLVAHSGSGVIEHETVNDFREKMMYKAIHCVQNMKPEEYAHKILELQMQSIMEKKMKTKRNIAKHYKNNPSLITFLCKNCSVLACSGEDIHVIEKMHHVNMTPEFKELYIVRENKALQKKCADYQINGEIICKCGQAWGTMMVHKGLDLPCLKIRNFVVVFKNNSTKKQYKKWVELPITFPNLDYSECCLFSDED


How the values were obtained:
Conditions in all cases: both partners purified
MDA5(M854K) [1] = target: T1, MDA5(M854K); assay: single-molecule TIRF imaging (smTIRF) on dsRNA; MAVS-CARD recruitment without LGP2: Cy3-MDA5, Cy3-MDA5(R337G) or Cy3-MDA5(M854K) (100 nM) and AF647-MAVS-CARD (100 nM) on 11.6-kb dsRNA; Imaging Buffer with 2 mM ATP, 23 °C
MDA5(R337G) [2] = target: T2, MDA5(R337G); assay: as above
MDA5(M854K) [3] = target: T1, MDA5(M854K); assay: single-molecule TIRF imaging (smTIRF) on dsRNA; 60 nM Cy3-LGP2 with or without 60 nM unlabelled MDA5, MDA5(R337G) or MDA5(M854K) on stretched, surface-anchored 11.6-kb dsRNA; Imaging Buffer (20 mM Tris-HCl pH 7.5, 100 mM NaCl, 1.5 mM MgCl2, 2 mM ATP unless stated otherwise), 23 °C
MDA5(R337G) [4] = target: T2, MDA5(R337G); assay: as above

binding result (MDA5(M854K) [1]) | binding result (MDA5(R337G) [2]) | binding result (MDA5(M854K) [3]) | binding result (MDA5(R337G) [4]) | Binder
binds | binds | – | – | MAVS-CARD(D23K/E26K/E80K) (domain or fragment, UniProt Q7Z434 1-97, looked up, Alexa Fluor 647 (SNAP-Surface Alexa Fluor 647 substrate) on the SNAP-tag, pET47b plasmid from the Sun Hur lab; also called AF647-MAVS-CARD; not shown: SNAP-tag, C-terminal, kept) MPFAEDKTYKYICRNFSNFCNVKVVKILPYLPCLTARDQDRLRATCTLSGNRDTLWHLFNTLQRRPGWVEYFIAALRGCKLVDLADEVASVYQSYQP
– | – | binds | binds | human LGP2 (natural protein, UniProt Q96C10 1-678, looked up, Cy3 or Cy5 on a peptide (GGGC-Cy3/Cy5) ligated by sortase; used unlabelled in some experiments) MELRSYQWEVIMPALEGKNIIIWLPTGAGKTRAAAYVAKRHLETVDGAKVVVLVNRVHLVTQHGEEFRRMLDGRWTVTTLSGDMGPRAGFGHLARCHDLLICTAELLQMALTSPEEEEHVELTVFSLIVVDECHHTHKDTVYNVIMSQYLELKLQRAQPLPQVLGLTASPGTGGASKLDGAINHVLQLCANLDTWCIMSPQNCCPQLQEHSQQPCKQYNLCHRRSQDPFGDLLKKLMDQIHDHLEMPELSRKFGTQMYEQQVVKLSEAAALAGLQEQRVYALHLRRYNDALLIHDTVRAVDALAALQDFYHREHVTKTQILCAERRLLALFDDRKNELAHLATHGPENPKLEMLEKILQRQFSSSNSPRGIIFTRTRQSAHSLLLWLQQQQGLQTVDIRAQLLIGAGNSSQSTHMTQRDQQEVIQKFQDGTLNLLVATSVAEEGLDIPHCNVVVRYGLLTNEISMVQARGRARADQSVYAFVATEGSRELKRELINEALETLMEQAVAAVQKMDQAEYQAKIRDLQQAALTKRAAQAAQRENQRQQFPVEHVQLLCINCMVAVGHGSDLRKVEGTHHVNVNPNFSNYYNVSRDPVVINKVFKDWKPGGVISCRNCGEVWGLQMIYKSVKLPVLKVRSMLLETPQGRIQAKKWSRVPFSVPDFDFLQHCAENLSDLSLD
